These results are taken from patent publication US20240287169A1 (AULOS BIOSCIENCE, published 2024).

Positions count from the first letter of the chain named. Numbers in names are those of the source.

For assay [1], the target named is T1, Mouse IL-2 (mouse, UniProt P04351 21-169).
T1 construct: Soluble analyte in SPR; also called mIL-2
T1 sequence (looked up): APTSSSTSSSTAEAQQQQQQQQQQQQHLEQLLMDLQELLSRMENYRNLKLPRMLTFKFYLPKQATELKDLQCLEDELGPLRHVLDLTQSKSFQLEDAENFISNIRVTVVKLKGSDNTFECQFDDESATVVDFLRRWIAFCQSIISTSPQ
The experiment in a line: SPR Biacore T200, antibody captured, mIL-2 analyte. The text has this: (§1) The SPR analysis was done on Biacore […] (GE healthcare, USA) on CM5 chips (cat:br10005-30, GE healthcare, USA). The chip was crosslinked with primary capture Ab against human IgG (Cat: br-1008-39, GE healthcare, USA) or primary capture antibody against mouse IgG (Cat: BR-1008-38, GE healthcare, USA) to a target of 8000RU. After cross-linking of the primary Ab, the mouse and human tested antibodies were immobilized on the primary Ab to a target of approximately additional 500RU. […] At the end of each cycle the analyte and tested antibody were stripped from the chip using 3M MgCl₂ and new tested Ab was loaded on the chip as described above. When indicated, instead of stripping the antibodies, kinetics was determined by injecting series of analyte concentrations in one cycle by the Single-cycle kinetics method. Binding kinetics were determined by the 1:1 Binding model using the Biacore T200 evaluation software.

In assay [2] the target is T2, Human IL-2 (human, UniProt P60568 21-153).
T2 construct: Soluble analyte in the SPR experiments; also called hIL-2; recombinant human IL-2
T2 sequence (P60568 21-153 limits assumed): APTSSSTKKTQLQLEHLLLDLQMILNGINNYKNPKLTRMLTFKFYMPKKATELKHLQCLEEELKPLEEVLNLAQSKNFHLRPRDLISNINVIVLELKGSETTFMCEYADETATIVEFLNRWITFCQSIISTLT
Put plainly: SPR Biacore T200, antibody captured, hIL-2 analyte.
Source text: as §1

In assay [3] the target is T1, Mouse IL-2. The experiment in a line: SPR Biacore, antibody captured, mIL-2 analyte.
Source text: as §1

For assay [4], the target named is T2, Human IL-2. The experiment in a line: SPR, multi-cycle, antibody captured, hIL-2 analyte.
Source text: as §1

The next assay concerns the target T3, cynomolgus monkey IL-2 (cynomolgus monkey, UniProt Q29615 21-154).
T3 construct: also called cIL-2
Put plainly: SPR, multi-cycle, antibody captured, cynomolgus IL-2 analyte.
Source text: as §1

Assay [5] deals with T2, Human IL-2. The experiment in a line: SPR, single-cycle, antibody captured, hIL-2 analyte.
Source text: as §1

The target of assay [6] is T2, Human IL-2. Put plainly: SPR, antibody captured on anti-human IgG CM5 chip, human IL-2 as analyte, single-cycle, 1:1 binding model.
Source text: as §1

The target of assay [7] is T2, Human IL-2. Put plainly: SPR, antibody captured on anti-human IgG CM5 chip, human IL-2 as analyte, multi-cycle, 1:1 binding model.
Source text: as §1

Assay [8] deals with T4, Non-alpha-IL-2 (naIL-2, hIL-2/hCD25 conjugate) (human, UniProt P01589 22-240; P60568 21-153).
T4 construct: Expressed in Expi293 cells; also called IL-2-CD25 conjugate; hIL-2/CD25 conjugated cytokine
Put plainly: SPR, biotinylated hCD25 on the chip, naIL-2 injected.

T3 sequence (Q29615 21-154 limits assumed): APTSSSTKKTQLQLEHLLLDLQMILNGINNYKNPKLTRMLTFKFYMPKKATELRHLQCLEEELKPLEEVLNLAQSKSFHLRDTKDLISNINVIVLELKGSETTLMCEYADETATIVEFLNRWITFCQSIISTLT

B1: BDG17.023 IgG (antibody, V domains shown)
VH: EIQLQQSGPELRRPGSSVKLSCKASGYNITDYLIHWVRHRPEHGLEWIGWIDPEDGETRYAQKFQSKATLTADTSSNAAYMQLSSLTPEDTATYFCARQLDSTYIYPFAYWGQGTLVTVSS
VL: DIVMTQSPFSLAVSEGEMVTINCKSSQSLLRSGNQKNYLAWYQQKPGQSPKLLIYYASTGQSGVPDRFIGSGSGTDFTLTISDVQAEDLADYYCLQHYITPPTFGAGTKLELK
notes: Human chimeric IgG1 with rat Fv
In the assay with Mouse IL-2 [1], B1 gave a Kd of 2460 nM, a koff of 0.0979 s⁻¹ and a kon of 39800 M⁻¹ s⁻¹. In the assay with Human IL-2 [2], this molecule gave a Kd of 0.0818 nM, a koff of 0.00107 s⁻¹ and a kon of 1.31e+07 M⁻¹ s⁻¹.

B2: BDG JES6.1RMC (17.006) (antibody, V domains shown)
VH: B1 VH with Q99S
VL: B1 VL with R31S, T100S
notes: Rat Fv with a mouse IgG2a constant region
For the molecule B2, in the assay with Mouse IL-2 [3], the equilibrium dissociation constant (Kd) amounted to 0.13 nM, the koff is 6.3e-05 s⁻¹ and the kon came out at 480000 M⁻¹ s⁻¹.

B3: BDG17.066 (antibody, human IgG1, kappa, L234A L235A, V domains shown)
VH: QVQLVQSGAEVKKPGSSVKVSCKASGYSITDSLIHWVRQAPGQGLEWMGWIDPEDGEINYAQKFQGRVTLTADTSTSTAYMELSSLRSEDTAVYYCARSLDSYPIDPFAYWGQGTLVTVSS
VL: DIVMTQSPDSLAVSLGERATINCKSSQSLLRNGNQQNYLAWYQQKPGQPPKLLIYYASTGQSGVPDRFSGSGSGTDFTLTISSLQAEDVAVYYCQQHYVTPPTFGAGTKVEIKR
notes: Humanized IgG1 with the LALA mutation (L234A, L235A)
B3: in the assay with Human IL-2 [4], the Kd came to 0.0515 nM, the koff was 0.000785 s⁻¹ and the association rate constant (kon) came out at 1.52e+07 M⁻¹ s⁻¹.

B4: BDG17.067 (antibody, human IgG1, kappa, L234A L235A, V domains shown)
VH: B3 VH with S32Y, E57V, I58T, N59A, S102Y, Y103D, D106Y
VL: B3 VL with Q36K
notes: Humanized IgG1 with the LALA mutation; also called BDG17.0067
In the assay with Human IL-2 [4], B4 came in with a Kd of 0.011 nM, a koff of 0.000372 s⁻¹ and a kon of 3.37e+07 M⁻¹ s⁻¹. Also, in the assay with cynomolgus monkey IL-2, binding was characterised by a dissociation constant (Kd) of 0.014 nM, the koff is 0.000398 s⁻¹ and the on-rate constant (kon) was 2.83e+07 M⁻¹ s⁻¹.

B5: BDG17.053 (antibody, V domains shown)
VH: B3 VH with S32Y, I58T, S102Y, Y103D, D106Y
VL: DIVMTQSPDSLAVSLGERATINCKSSQSLLRNGNQKNYLAWYQQKPGQPPKLLIYYASTGQSGVPDRFSGSGSGTDFTLTISSLQAEDVAVYYCQQHYITPPTFGAGTKVEIK
notes: Humanized IgG1
In the assay with Human IL-2 [5], B5 came in with a Kd of 0.0643 nM, a koff of 0.00254 s⁻¹ and a kon of 3.96e+07 M⁻¹ s⁻¹. In the assay with Human IL-2 [6], this molecule gave a kon of 3.39e+07 M⁻¹ s⁻¹.

B6: BDG17.038 (antibody, V domains shown)
VH: B3 VH
VL: B5 VL with K36Q, I99V
notes: Humanized IgG1
In the assay with Human IL-2 [4], B6 displayed a Kd of 0.0202 nM, a koff of 0.0002 s⁻¹ and a kon of 1.41e+07 M⁻¹ s⁻¹. In the assay with Human IL-2 [7], this molecule had a dissociation rate constant (koff) of 0.0002 s⁻¹.

B7: BDG17.054 (antibody, V domains shown)
VH: B3 VH with S32D, I58T, Y103T, P104W, D106Y
VL: B5 VL with N32R, Y38H, Y56D, Q95L, H97S
notes: Humanized IgG1 without the LALA mutation
As to B7, in the assay with Human IL-2 [5], binding was characterised by a dissociation constant (Kd) of 0.0127 nM, the koff came out at 0.0007 s⁻¹ and the kon amounted to 5.5e+07 M⁻¹ s⁻¹.

B8: BDG17.043 (antibody, V domains shown)
VH: B3 VH with S32Y, E57V, I58T, N59A, S102Y, Y103D, D106Y
VL: B5 VL with I99V
notes: Humanized IgG1; also called BDG017.043
In the assay with Human IL-2 [4], B8 came in with a dissociation constant Kd of 0.0482 nM and a koff of 0.000222 s⁻¹. In addition, in the assay with Human IL-2 [7], the Kd is 0.0478 nM, the koff was found to be 0.000266 s⁻¹ and the kon was 3.39e+07 M⁻¹ s⁻¹.

B9: biotinylated human CD25 (receptor, UniProt P01589 22-213, looked up)
chain: ELCDDDPPEIPHATFKAMAYKEGTMLNCECKRGFRRIKSGSLYMLCTGNSSHSSWDNQCQCTSSATRNTTKQVTPQPEEQKERKTTEMQSPMQPVDQASLPGHCREPPPWENEATERIYHFVVGQMVYYQCVQGYRALHRGPAESVCKMTHGKTRWTQPQLICTGEMETSQFPGEEKPQASPEGRPESETSC
modifications: biotinylated
notes: Captured on a streptavidin-coated chip; also called biotinylated hCD25
With B9, in assay [8], the binding result is given as “no binding (tested: 1 uM)”.
